Measured values taken from patent publication CN114634568A (SHENZHEN PHENPENG BIOTHERAPY CO LTD, dated 2022).

Tests used:
[1] = target: T1, hu(人)BCMA ECD His, ACRO, BCA-H522y (human, UniProt Q02223 1-54); assay: ELISA, hu BCMA ECD His coated at 2 μg/mL
T1 construct: extracellular domain; Bought reagent; also called hu BCMA ECD His; BCMA抗原; not shown: His tag
T1 sequence (looked up): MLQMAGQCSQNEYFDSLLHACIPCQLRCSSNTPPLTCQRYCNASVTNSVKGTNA

[2] = target: T2, 人BCMA全长 (K562-BCMA细胞株和CHO-BCMA细胞株表面表达) (human, UniProt Q02223 1-184); assay: flow cytometry on K562-BCMA and CHO-BCMA cells, APC anti-human IgG Fc
T2 construct: whole, on cells; also called BCMA表达阳性的细胞
T2 sequence (looked up): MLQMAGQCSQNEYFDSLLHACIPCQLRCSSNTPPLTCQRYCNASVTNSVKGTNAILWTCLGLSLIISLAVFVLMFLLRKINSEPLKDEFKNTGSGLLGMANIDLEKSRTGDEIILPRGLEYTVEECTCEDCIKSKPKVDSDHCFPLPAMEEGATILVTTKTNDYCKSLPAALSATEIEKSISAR

[3] = target: T3, h BCMA ECD mFc (human, UniProt Q02223 1-54); assay: BLI (Fortebio), h BCMA ECD mFc 3 ug/mL loaded on AMC biosensor, antibody in solution
T3 construct: extracellular domain; also called hBCMA-mFc; not shown: mouse Fc (mFc)
T3 sequence (looked up): T1 sequence (looked up)

Measured: binding result

B1: 鼠源BCMA抗体 mVH-mVL (CN201911298620.7专利中5E2 BCMA抗体) (antibody, V domains shown)
VH: EVQLQQSGPELIKPGASVKMSCKASGYTFTSYVVHWVKQKPGQGLEWIGYIIPYNDDTKYNEKFKGKATLTSDKSSSTAYMELSSLTSEDSAVYYCARWDYDDGYFDYWGQGTTLTVSS
VL: DVVMTQTPLSLPVTLGDQASISCRSSQSLLHSNGNTYLHWYLQKPGQSPKLLIYKVSNRFSGVPDRFSGSGSGTDFTLKISRVEAEDLGVYFCSQITHIPFTFGSGTKLEIKR
notes: In flow cytometry the detection reagent was APC anti-human IgG Fc
binds: all assays above
